According to article PMC11406360, “The enzymatic oxygen sensor cysteamine dioxygenase binds its protein substrates through their N-termini” (The Journal of Biological Chemistry, 2024):
Several values for one entry are separate records, joined by “and”; a condition that tells them apart may be missing. Equal values may be shown once.

T1: 2-aminoethanethiol (cysteamine) dioxygenase (ADO), biotinylated, for SPR (human, UniProt Q96SZ5 1-270, biotin (N terminally biotinylated; 0.2 mM biotin added at induction))
T1 chain: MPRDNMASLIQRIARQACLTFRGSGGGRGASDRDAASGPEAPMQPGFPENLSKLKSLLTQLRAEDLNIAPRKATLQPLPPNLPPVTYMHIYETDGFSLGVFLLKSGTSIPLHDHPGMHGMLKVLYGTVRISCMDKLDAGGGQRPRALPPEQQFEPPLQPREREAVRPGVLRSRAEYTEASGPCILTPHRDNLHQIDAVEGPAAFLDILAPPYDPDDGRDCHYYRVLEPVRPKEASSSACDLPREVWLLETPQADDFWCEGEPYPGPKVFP

T2: cobalt substituted ADO (ADO-Co^2+), biotinylated, for SPR (human, UniProt Q96SZ5 1-270, biotin (N terminally biotinylated))
T2 chain: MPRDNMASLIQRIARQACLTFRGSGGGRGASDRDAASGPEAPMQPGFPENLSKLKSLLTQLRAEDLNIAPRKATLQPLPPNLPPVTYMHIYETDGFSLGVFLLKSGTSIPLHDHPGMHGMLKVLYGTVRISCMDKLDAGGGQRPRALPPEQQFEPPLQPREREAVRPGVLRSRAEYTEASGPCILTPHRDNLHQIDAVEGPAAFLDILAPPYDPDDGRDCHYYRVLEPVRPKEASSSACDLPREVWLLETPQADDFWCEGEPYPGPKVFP

T3: ADO-H193D, biotinylated, for SPR (human, UniProt Q96SZ5 1-270, H193D, biotin (N terminally biotinylated))
T3 construct: 2-aminoethanethiol (cysteamine) dioxygenase (ADO), human, UniProt Q96SZ5, full length, H193D; Mutant with impaired iron retention (reduced metal occupancy by ICP-MS); source: E. coli Rosetta2(DE3), pQE80L-Navi construct, site-directed mutagenesis, purified (Ni-NTA, SEC); not shown: biotinylation tag (from the vector pQE80L-Navi), N-terminal, kept
T3 sequence (looked up): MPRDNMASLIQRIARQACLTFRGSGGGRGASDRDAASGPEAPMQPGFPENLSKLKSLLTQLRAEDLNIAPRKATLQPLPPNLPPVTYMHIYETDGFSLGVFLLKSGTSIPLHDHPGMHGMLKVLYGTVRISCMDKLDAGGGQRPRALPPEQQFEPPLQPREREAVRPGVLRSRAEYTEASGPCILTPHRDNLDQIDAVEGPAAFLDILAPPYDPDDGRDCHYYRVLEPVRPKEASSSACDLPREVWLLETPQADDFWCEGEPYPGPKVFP


Key:
[1] = target: T1, 2-aminoethanethiol (cysteamine) …; assay: SPR; post-reconstitution with Fe2+
[2] = target: T1, 2-aminoethanethiol (cysteamine) …; assay: SPR; before treatment
[3] = target: cobalt substituted ADO (ADO-Co^2+), biotinylated, for SPR (human) (UniProt Q96SZ5); assay: SPR; as a1, but single cycle kinetics (SCK) mode fit to a 1:1 binding model; ADO-Co^2+ immobilized
[4] = target: T2, cobalt substituted ADO (ADO-Co^2+), …; assay: SPR; single cycle kinetics
[5] = target: T1, 2-aminoethanethiol (cysteamine) …; assay: SPR; post-metal removal (phenanthroline/EDTA)
[6] = target: ADO-H193D, biotinylated, for SPR (human, UniProt Q96SZ5 1-270, H193D, biotin (N terminally biotinylated)); assay: SPR
[7] = target: T3, ADO-H193D, biotinylated, for SPR; assay: SPR; Biacore T200; biotinylated ADO immobilized on a Biotin CAP chip (∼2500 to 3000 RU), peptide/protein substrates injected; 4 °C; 20 mM Hepes pH 7.5, 500 mM NaCl, 10 mM DTT, 0.1% tween-20; 50 μl/min; multicycle, equilibrium steady state affinity 1:1 binding model; settings: both partners purified
[8] = substrate: CC(C)C[C@H](NC(=O)CNC(=O)[C@H](CCCCN)NC(=O)[C@@H](N)CS)C(=O)N[C@@H](C)C(=O)N[C@@H](C)C(=O)N[C@@H](CC(C)C)C(=O)N1CCC[C@H]1C(=O)N[C@@H](Cc1c[nH]cn1)C(=O)N[C@@H](CO)C(=O)N[C@@H](CS)C(=O)N[C@@H](CC(C)C)C(=O)N[C@@H](CCC(=O)O)C(=O)N[C@@H](CCCNC(=N)N)C(N)=O; assay: LC-MS enzyme activity assay (Nt-cys sulfinylation by ADO); assay type: biochemical, human; settings: other: Michaelis-Menten, stopped LC-MS assay, atmospheric O2, three independent experiments, pH 7.5
Experimental: (§1) […] Otherwise stated, the reaction buffer contained 50 mM Tris pH 7.5, 50 mM NaCl, and 5 mM TCEP. The reactions were quenched by mixing the sample 1:10 (peptide) or 1:5 (protein) with 1% formic acid (v/v).
(§2) Peptide and protein samples were injected onto a Chromolith RP-18 Endcapped HPLC Columns (100–2 mm; Merck) and Discovery BIO Wide Pore C5 HPLC Column (Supelco), respectively, heated to 40 °C and eluted at 0.3 ml/min using a gradient of 95% deionized water supplemented with 0.1% (v/v) formic acid to 95% acetonitrile. Oxidation was monitored by an ultra high-performance liquid chromatography MS using ExionLC AD (Sciex) and SelexION (Sciex) mass spectrometer operated in a positive electrospray TOF (+ESI-TOF) mode. Instrument parameters, data acquisition and data processing were controlled by Analyst software (Sciex; https://sciex.com/products/software/analyst-software). The peptide data processing was performed using Skyline software (MacCoss Lab Software; https://skyline.ms/project/home/software/Skyline/begin.view) ([38]). All figures and parameters were generated using GraphPad Prism 9 (GraphPad; https://www.graphpad.com/features).

[9] = substrate: CC(C)C[C@H](NC(=O)[C@H](C)NC(=O)[C@H](CCCCN)NC(=O)[C@@H](N)CS)C(=O)N[C@@H](C)C(=O)N[C@@H](C)C(=O)N[C@@H](CC(C)C)C(=O)N1CCC[C@H]1C(=O)N[C@@H](Cc1c[nH]cn1)C(=O)N[C@@H](CO)C(=O)N[C@@H](CS)C(=O)N[C@@H](CC(C)C)C(=O)N[C@@H](CCC(=O)O)C(=O)N[C@@H](CCCNC(=N)N)C(N)=O; assay: as above; assay type: biochemical, human; settings: other: Michaelis-Menten, stopped LC-MS assay, 37 °C, atmospheric O2; three independent experiments; pH 7.5; 37.0 °C
Experimental: as §1, §2

[10] = substrate: CC(C)C[C@H](NC(=O)CNC(=O)[C@H](C)NC(=O)[C@@H](N)CS)C(=O)N[C@@H](C)C(=O)N[C@@H](C)C(=O)N[C@@H](CC(C)C)C(=O)N1CCC[C@H]1C(=O)N[C@@H](Cc1c[nH]cn1)C(=O)N[C@@H](CO)C(=O)N[C@@H](CS)C(=O)N[C@@H](CC(C)C)C(=O)N[C@@H](CCC(=O)O)C(=O)N[C@@H](CCCNC(=N)N)C(N)=O; assay: as above; assay type: biochemical, human; settings: other: Michaelis-Menten, stopped LC-MS assay, 37 °C, atmospheric O2; three independent experiments; pH 7.5; 37.0 °C
Experimental: as §1, §2

Row | Binder | Kd [1] [nM] | Kd [2] [nM] | fold increase in binding affinity relative to native ADO [3] [fold] | Kd [4] [nM] | Kd [5] [nM] | Kd [6] [µM] | fold weaker KD than with WT ADO [7] [fold] | Km ([8]; 25 °C, 25.0 °C) | kcat ([8]; 25 °C, 25.0 °C) | kcat/Km ([8]; 25 °C, 25.0 °C) | Km ([8]; 37 °C, 37.0 °C) [µM] | kcat ([8]; 37 °C, 37.0 °C) [s⁻¹] | Km [9] [µM] | kcat [9] [s⁻¹] | kcat/Km [9] | Km [10] [µM] | kcat [10] [s⁻¹] | kcat/Km [10]
1 | CKGLAALPHSCLER (peptide, UniProt O15539 2-15, looked up, regulator of G-protein signaling 5 (RGS5), first 14 amino acids of the methionine excised N terminus: residues 2-15 with the initiating methionine denoted as 1; source: synthetic peptide (SPPS, HPLC purified)) [native RGS5 peptide (first 14 amino acids of the methionine excised N terminus of RGS5)] | 330 | 370 | 10 | 27 | 320 | 3.3 | ~13 | – | – | – | – | – | – | – | – | – | – | –
2 | ADO (Homo sapiens) (protein, Full-length human ADO (UniProt ID: Q96SZ5) was cloned; made in house; host or cells: Rosetta2(DE3) Escherichia coli) MPRDNMASLIQRIARQACLTFRGSGGGRGASDRDAASGPEAPMQPGFPENLSKLKSLLTQLRAEDLNIAPRKATLQPLPPNLPPVTYMHIYETDGFSLGVFLLKSGTSIPLHDHPGMHGMLKVLYGTVRISCMDKLDAGGGQRPRALPPEQQFEPPLQPREREAVRPGVLRSRAEYTEASGPCILTPHRDNLHQIDAVEGPAAFLDILAPPYDPDDGRDCHYYRVLEPVRPKEASSSACDLPREVWLLETPQADDFWCEGEPYPGPKVFP | – | – | – | – | – | – | – | 62 µM and 125 µM | 7 s⁻¹ and 19 s⁻¹ | 1.1 x 10^5 s^-1M^-1 and 1.5 x 10^5 s^-1M^-1 | 83 | 22 | 33 | 8 | 2.4 x 10^5 s^-1M^-1 | 1970 | 100 | 0.51 x 10^5 s^-1M^-1
3 | CFPKVLSDDMKKLK (peptide, UniProt P24001 2-15, looked up, interleukin 32 (IL32), first 14 amino acids of the methionine excised N terminus: residues 2-15 with the initiating methionine denoted as 1; source: synthetic peptide (SPPS, HPLC purified)) [native IL32 peptide (first 14 amino acids of the methionine excised N terminus of interleukin 32)] | – | – | 10 | – | – | – | ~77 | – | – | – | – | – | – | – | – | – | – | –
